Here are results for 1 substance from patent US20260184768A1.

Assay [1] concerns the target full-length PcrV.6xhis (Pseudomonas aeruginosa). In words: SPR (Biacore T200), mAb captured via anti-human Fc, PcrV injected, 37 C.
The target is the same in assay [2]. Description: SPR (Biacore T200), mAb captured via anti-human Fc, PcrV injected, 25 C.

With REGN1932 (antibody), the results for the 90 nM Ag Bound (RU) in assay [1] and in assay [2] were -22.5 RU and -5.9 RU, respectively.
